This note sets out measurements from the supplement of paper PMC9170038.

Series [1] relates to MS2 coat protein. Nature of the series: apparent KD of MS2 coat protein, switch ON state; designed switch direction (-1 OFF switch, 1 ON switch): -1; higher = weaker reporter binding. The settings on record: FMN input: 0 or 200 uM; Eterna round: R93 (includes R88 designs). The method, boiled down: (§1)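 Apparent KD per design is the median of normalised cluster binding-curve fits. Designed RNA switches transcribed on-chip from Illumina sequencing clusters were titrated with SNAP-549-labelled MS2 coat protein in twofold steps from 0.7 or 1.5 nM to 3 µM, with 0.8–1.5 h down to 10–20 min per step. Buffer: 100 mM Tris-HCl pH 7.5, 80 mM KCl, 4 mM MgCl2, without or with constant ligand.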

The test system of series [2] is MS2 coat protein. Nature of the series: apparent KD of MS2 coat protein, switch OFF state (with FMN for OFF switches, without FMN for ON switches); designed switch direction (-1 OFF switch, 1 ON switch): -1; higher = weaker reporter binding. To be noted: FMN input: 0 or 200 uM; Eterna round: R93 (includes R88 designs). The method, boiled down:
as §1

For series [3], the system named is MS2 coat protein. The series can be described thus: apparent KD of MS2 coat protein; designed switch direction (-1 OFF switch, 1 ON switch): 1; higher = weaker reporter binding. The method, boiled down:
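Apparent KD, taken as the median over clusters for each design, was obtained by curve-fitting normalised cluster fluorescence. Designed RNA switches had been transcribed on Illumina chips by stalled E. coli RNA polymerase and titrated with SNAP-549-labelled MS2 coat protein, doubling from 0.7 or 1.5 nM to 3 µM.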

Setting [4] is: Eterna round: R95, input ligand: FMN 200 uM.
[5] abbreviates: Eterna round: R95, input ligand: microRNA oligo, concentration not stated.
Setting [6] is: Eterna round: R95, input ligand: none.
[7] abbreviates: input ligand: microRNA oligo, concentration not stated.

“AAAAAAAAAGGAUAUACAGGAGGUAAGGUCGAAAAAAAAAAACAUGAGGAUCACCCAUGUAGAAGGUUUAAAAA [Excls2-VIII]”: the “apparent KD of MS2 coat protein” value in the series on MS2 coat protein [1] was determined as 27 nM; in the series on MS2 coat protein [2], 30.6 nM.
For “AAAAAAAGAGGAUAUACGUACAUGUCGAAAGACGUGAAGGGACAUGAGGAUCACCCAUGUAGAAGGUUUAAAAA [Mat - Exclusion 2 - JL mod - D84]” the same measures were 33.8 nM and 15.8 nM.
“AAAAAACAUGAGGAUCACCCAUGUAAGGAUAUGCAAGCAAGAAGAAAGAACAGAAAAAGCAGAAGGUACACACA [Amethyst 73]”: the “apparent KD of MS2 coat protein” value in the series with MS2 coat protein [1] worked out at 22.4 nM; in the series on MS2 coat protein [2] it was 25 nM.
For “AAAAAACAUGAGGAUCACCCAUGUAAGGAUAUGCGAAAAUAAAAUAAAAUAAAAUAAAGCAGAAGGUACAAAAA [66%, Wbt, 1]” the same measures were 32.6 nM and 37.7 nM.
For “AAAAAACAUGAGGAUCACCCAUGUAAGGAUAUGCUAAAAAACACGGAAAAACGUGAUAGCAGAAGGUACAAAAG [Mat - Exclusion 1 - Eli mod - D87]”, the “apparent KD of MS2 coat protein” value with MS2 coat protein [1] came to 25.5 nM; with MS2 coat protein [2] it was 31.2 nM.
“AAAAAACAUGAGGAUCACCCAUGUAAGGAUAUGCUCGUGCGAAAAGCACAAAAAAAGAGCAGAAGGUACAAAAA [66%, Wbt, 39]”: the “apparent KD of MS2 coat protein” value in the series on MS2 coat protein [1] came to 15.2 nM; in the series on MS2 coat protein [2], 33.3 nM.
In the case of “AAAAAACAUGAGGAUCACCCAUGUAAGGAUAUGUAAAAUAAAAGAAAAAUAAAGAAAAGCAGAAGGUAUAUGUA [JL wbt mod 17]”, the “apparent KD of MS2 coat protein” value with MS2 coat protein [1] came to 29 nM; in the series with MS2 coat protein [2], 24.7 nM.
For the sequence “AAAAAACAUGAGGAUCACCCAUGUGAGGAUAUGACGUAAAUAAAGAAAGAAGAAAUCGUCAGAAGGCACACCUA [Disincluded 2 (MS2 Riboswitches)]”, the “apparent KD of MS2 coat protein” value was 25.7 nM in the series with MS2 coat protein [1] and 45.7 nM in the series with MS2 coat protein [2].
For “AAAAAACAUGAGGAUCACCCAUGUGAGGAUAUGCGAAAAAAAAAAUAAAAAAAAAAAAGUAGAAGGUACAAAAA [LROPPY Exclusion 1 - v08_deltaG=5.44]”, the “apparent KD of MS2 coat protein” value in the series with MS2 coat protein [1] is 27.9 nM; with MS2 coat protein [2] it was 26.9 nM.
With “AAAAAACAUGAGGAUCACCCAUGUUAGGAUAUGCUAUGGAAAAAUAAAAUAAAACAUAGCAGAAGGGACAAAAA [Mat - Exclusion 1 - Eli mod - D28]”, the “apparent KD of MS2 coat protein” value in the series on MS2 coat protein [1] was found to be 15 nM; with MS2 coat protein [2], 38.3 nM.
Taken in the same sequence, the figures for “AAAAAAGCAGGAUAUACGAACAUGUCAAAAGACGUGAAGGGACAUGAGGAUCACCCAUGUAGAAGGGUUAAAAA [JL Stem Breaker 5]” were 198 nM and 53.6 nM.
With “AAAAAGAGAGGAUAUACAUGAGGAUCACCCAUGUGACACAAAAAAAAAAAAAAAAAAUGUAGAAGGCUCAAAAA [65%, Moding Exclusion3-cac2, 18]”, the “apparent KD of MS2 coat protein” value in the series with MS2 coat protein [1] came to 35.5 nM; in the series on MS2 coat protein [2], 97.2 nM.
On to “AAAAAGAUAGGAUAUACAUGAAAAAAAAAAAAAAAAAAAAGACAUGAGGAUCACCCAUGUAGAAGGGUCAAAAA [water's exclusion 2 2nd]”, for which the “apparent KD of MS2 coat protein” value with MS2 coat protein [1] amounted to 50.3 nM; in the series with MS2 coat protein [2], 42.1 nM.
Consider “AAAAAGCGAGGAUAUACAUGAGGAUCACCCAUGUGAAAGUCGAAAAAAAAGACAAAAAGUAGAAGGCGCAAAAA [Banishment 7 - Jieux - Exclusion 3]”, for which the “apparent KD of MS2 coat protein” value came out at 18.3 nM in the series on MS2 coat protein [1] and 22.8 nM in the series with MS2 coat protein [2].
As to “AAAAAGCGAGGAUAUACGAGUCAAAGAAAAGACAAGGAGAAACAUGAGGAUCACCCAUGUAGAAGGCGCAAAAA [Fiskers exclusion D2]”, the figures for the “apparent KD of MS2 coat protein” value in the series with MS2 coat protein [1] and in the series with MS2 coat protein [2] were 21.8 nM and 25.3 nM, respectively.
Consider “AAAAAGCUAGGAUAUACGAAAAAAAAGGGUAGAAAAAAAACACAUGAGGAUCACCCAUGUAGAAGGAGCAAAAA [Mat - Exclusion 2 - Tesla mod - D33]”, for which the “apparent KD of MS2 coat protein” value turned out to be 45.7 nM with MS2 coat protein [1] and 84.6 nM in the series with MS2 coat protein [2].
With “AAAAAGGCAGGAUAUGCAUACCCACGGAAAAAAAGGCUGGGACAUGAGGAUCACCCAUGUAGAAGGGCCAAAAA [Dora Explored 12 - Jieux - Exclusion 2]”, the “apparent KD of MS2 coat protein” value was found to be 21.5 nM in the series with MS2 coat protein [1] and 14.5 nM in the series on MS2 coat protein [2].
Regarding “AAAAAGGCAGGAUAUGCAUACCCACGGAAAAAAAGGUUGGGACAUGAGGAUCACCCAUGUAGAAGGGCCAAAAA [Dora Explored 13 - Jieux - Exclusion 2]”, the “apparent KD of MS2 coat protein” value was found to be 43.4 nM in the series on MS2 coat protein [1] and 22.4 nM with MS2 coat protein [2].
For “AAAAAGGGAGGAUAUGCAUACACACAAAAAAAAAAAAAAAAACAUGAGGAUCACCCAUGUAGAAGGCCCAAAAA [Dora Explored 4 - Jieux - Exclusion 2]”, the results for the “apparent KD of MS2 coat protein” value in the series on MS2 coat protein [1] and in the series on MS2 coat protein [2] were 21.1 nM and 14.4 nM, respectively.
For the sequence “UUUAGUUGCGGGCAGGAUAUGUAUUAAAAUACAUGAGGAUCACCCAUGUGCGGGUAUAACACCCGAUAGAAGGGCCAAUCGCGAC [Laonerce - 11] (puzzle: Same State 2)”, the “apparent KD of MS2 coat protein” value in the series on MS2 coat protein [3] (setting [4]) worked out at 20.9 nM; in the series with MS2 coat protein [3] (setting [5]), 53.6 nM; with MS2 coat protein [3] (setting [6]), 71.9 nM.
With “UUUCUCAUGUAAGGAUAUGCAGCCGUUUCGGCUGCAGAAGGUACUAUAAUACAUGAGGAUCACCCAUGUCUCUAUUAUUUAGUU [JL SSNG1 1.44] (Eterna round: R96, puzzle: Same State NG 1)”, the figures for the “apparent KD of MS2 coat protein” value in the series on MS2 coat protein [3] (input ligand: FMN 200 uM), in the series on MS2 coat protein [3] (setting [7]) and in the series on MS2 coat protein [3] (input ligand: none) were 84.7 nM, 39.9 nM and 47.1 nM, respectively.
Taken in the same sequence, the figures for “UUUCUCAUGUAAGGAUAUGCAGCCGUUUCGGCUGCAGAAGGUACUAUAAUACAUGAGGAUCACCCAUGUCUCUCGCAUUGCGAG [JL SSNG1 1.48] (Eterna round: R96, puzzle: Same State NG 1)” were 263 nM, 28.9 nM and 62 nM.
Take “UUUGCAUGACGAGGAUAUCAUUUAUAUCUUGAUUGAGAAGGCGUUCUUUUUUUUACCUAACAUGAGGAUCACCCAUGUGACAGU [JR_SSNG1_Sub050] (Eterna round: R96, puzzle: Same State NG 1)”: the “apparent KD of MS2 coat protein” value in the series with MS2 coat protein [3] (input ligand: FMN 200 uM) came to 14.1 nM; in the series with MS2 coat protein [3] (setting [7]), 13.4 nM; in the series with MS2 coat protein [3] (input ligand: none), 16.1 nM.
“UUUGGGUGGCUGGAGGAUAUCCUGGUUGUUACAUGAGGAUCACCCAUGUGCCGCGCGGUGCGCUGGGAGAAGGCCGGCGGCCGUU (puzzle: Same State 2)”: the “apparent KD of MS2 coat protein” value in the series on MS2 coat protein [3] (setting [4]) worked out at 28.9 nM; in the series on MS2 coat protein [3] (setting [5]), 61.1 nM; in the series on MS2 coat protein [3] (setting [6]) it was 141 nM.
Regarding “UUUUAUUUUUGGGUGCAAGCUUUUUGCUUACAUGAGGAUCACCCAUGUUUUUAUUUUUUAUUUUUAUUUUUAUUUUU (puzzle: Sensor for hsa-mir-208a)”, the entries for the “apparent KD of MS2 coat protein” value in the series with MS2 coat protein [3] (setting [4]), in the series with MS2 coat protein [3] (setting [5]) and in the series with MS2 coat protein [3] (setting [6]) were 51.8 nM, 60.3 nM and 86.7 nM, respectively.
For “UUUUUUAAGACGAGACAAGCUUUUUGAUCACAUGAGGAUCACCCAUGUCUCGUCUUAUUUUUUUUUUUUUUUUUUUU [BA Sensor hsa-mir-208a - 2 - 3] (puzzle: Sensor for hsa-mir-208a)” the same measures were 21.4 nM, 5.76 nM and 16.9 nM.
